According to doi:10.1101/2022.03.04.482944 (bioRxiv, 2022):

Key:
Test in all cases: Ligand Surface Binding Assay
ACVR2A-Halo = ACVR2A-Halo (human, UniProt P27037 20-513)
ACVR2B-Halo = ACVR2B-Halo (human, UniProt Q13705 19-512)
BMPR2-Halo = molecular target: T1, BMPR2-Halo (human, UniProt Q13873 27-1038)
T1 sequence (looked up): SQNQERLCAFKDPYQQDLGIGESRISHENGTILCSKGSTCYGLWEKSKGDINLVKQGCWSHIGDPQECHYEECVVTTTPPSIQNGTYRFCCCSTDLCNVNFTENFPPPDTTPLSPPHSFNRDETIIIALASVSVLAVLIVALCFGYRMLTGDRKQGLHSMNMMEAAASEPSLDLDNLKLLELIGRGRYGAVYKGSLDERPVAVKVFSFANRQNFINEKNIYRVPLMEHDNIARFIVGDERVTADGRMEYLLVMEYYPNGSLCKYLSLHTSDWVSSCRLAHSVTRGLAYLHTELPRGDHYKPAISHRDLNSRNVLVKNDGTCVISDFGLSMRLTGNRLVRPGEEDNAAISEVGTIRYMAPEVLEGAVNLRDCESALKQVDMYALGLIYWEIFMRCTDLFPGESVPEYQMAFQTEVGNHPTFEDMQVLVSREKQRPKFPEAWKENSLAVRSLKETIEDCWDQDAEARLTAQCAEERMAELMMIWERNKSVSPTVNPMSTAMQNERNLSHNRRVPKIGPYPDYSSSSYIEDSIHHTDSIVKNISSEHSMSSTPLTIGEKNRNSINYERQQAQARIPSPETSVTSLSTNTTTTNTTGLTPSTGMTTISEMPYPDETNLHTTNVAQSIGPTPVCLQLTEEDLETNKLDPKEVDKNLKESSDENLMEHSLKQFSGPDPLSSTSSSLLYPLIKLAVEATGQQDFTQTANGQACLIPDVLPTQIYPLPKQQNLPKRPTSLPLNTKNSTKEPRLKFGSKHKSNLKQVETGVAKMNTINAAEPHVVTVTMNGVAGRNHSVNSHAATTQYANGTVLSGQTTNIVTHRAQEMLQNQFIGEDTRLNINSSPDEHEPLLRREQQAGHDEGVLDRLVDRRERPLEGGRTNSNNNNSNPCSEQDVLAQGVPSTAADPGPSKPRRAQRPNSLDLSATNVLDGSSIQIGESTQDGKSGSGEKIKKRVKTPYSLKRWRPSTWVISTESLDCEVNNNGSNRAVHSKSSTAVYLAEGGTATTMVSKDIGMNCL

Chain of ACVR2B-Halo (Q13705 19-512): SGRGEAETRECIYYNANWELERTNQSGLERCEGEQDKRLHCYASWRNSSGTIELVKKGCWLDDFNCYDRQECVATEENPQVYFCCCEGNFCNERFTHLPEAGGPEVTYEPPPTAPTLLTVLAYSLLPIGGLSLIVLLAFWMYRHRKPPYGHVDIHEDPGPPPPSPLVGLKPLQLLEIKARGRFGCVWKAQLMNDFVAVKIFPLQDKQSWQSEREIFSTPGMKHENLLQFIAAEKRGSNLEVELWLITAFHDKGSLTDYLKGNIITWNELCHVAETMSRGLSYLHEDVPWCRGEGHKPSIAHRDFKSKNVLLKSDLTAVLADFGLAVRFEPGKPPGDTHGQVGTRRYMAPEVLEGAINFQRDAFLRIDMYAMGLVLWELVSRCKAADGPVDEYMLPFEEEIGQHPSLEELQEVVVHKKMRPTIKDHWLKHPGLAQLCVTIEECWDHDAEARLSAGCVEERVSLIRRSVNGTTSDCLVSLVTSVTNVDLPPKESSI
Chain of ACVR2A-Halo (P27037 20-513): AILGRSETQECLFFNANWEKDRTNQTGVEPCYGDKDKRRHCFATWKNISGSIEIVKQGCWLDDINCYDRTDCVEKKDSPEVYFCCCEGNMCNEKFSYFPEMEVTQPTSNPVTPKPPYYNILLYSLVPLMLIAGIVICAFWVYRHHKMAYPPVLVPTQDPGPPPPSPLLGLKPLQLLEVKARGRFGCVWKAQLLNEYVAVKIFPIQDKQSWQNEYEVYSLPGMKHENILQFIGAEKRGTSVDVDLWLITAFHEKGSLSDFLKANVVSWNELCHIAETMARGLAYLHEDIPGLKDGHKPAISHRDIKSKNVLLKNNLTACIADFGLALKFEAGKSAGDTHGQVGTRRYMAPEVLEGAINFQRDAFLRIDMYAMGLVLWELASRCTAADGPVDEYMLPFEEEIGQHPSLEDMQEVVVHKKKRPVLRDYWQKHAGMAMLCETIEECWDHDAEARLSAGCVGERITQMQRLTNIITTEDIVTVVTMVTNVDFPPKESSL

B1: Activin A-Cy5 (ligand, UniProt P08476 311-426, looked up)
chain: GLECDGKVNICCKKQFFVSFKDIGWNDWIIAPSGYHANYCEGECPSHIAGTSGSSLSFHSTVINHYRMRGHSPFANLKSCCVPTKLRPMSMLYYDDGQNIIKKDIQNMIVEECGCS
modifications: Cy5 label (NHS-activated Cy5, protein:dye ratio 1:2 in the labelling reaction)
Question: What does the source list for B1?
Answer: fold Activin A-Cy5 binding relative to untransfected cells (ACVR2A-Halo): ~29 fold; fold Activin A-Cy5 binding relative to untransfected cells (ACVR2B-Halo): ~84 fold; fold Activin A-Cy5 binding relative to untransfected cells (BMPR2-Halo): ~27 fold
